Laboratory results as given in patent publication US20050032185A1.

How the values were obtained:
[1] = molecular target: HA-PKBα (haemagglutinin epitope-tagged human PKBα expressed in 293 cells) (human) (UniProt P31749); assay: cell-based or functional assay
[2] = molecular target: GST-PKBα (full length human protein kinase Bα with N-terminal glutathione S-transferase, from unstimulated 293 cells) (human) [GST: P08515]; assay: cell-based or functional assay
GST-PKBα (full length human protein kinase Bα with N-terminal glutathione S-transferase, from unstimulated 293 cells) (human) [GST: P08515], sequence (P08515 1-218, tags or fused parts left off): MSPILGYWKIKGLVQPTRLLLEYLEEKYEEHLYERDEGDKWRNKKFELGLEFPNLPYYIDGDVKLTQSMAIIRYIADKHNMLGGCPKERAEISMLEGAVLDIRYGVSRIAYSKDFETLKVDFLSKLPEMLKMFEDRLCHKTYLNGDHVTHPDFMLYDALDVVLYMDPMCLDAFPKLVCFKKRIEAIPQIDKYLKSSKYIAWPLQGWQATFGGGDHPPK

HA-PKBα (haemagglutinin epitope-tagged human PKBα expressed in 293 cells) (human), sequence (P31749 whole entry): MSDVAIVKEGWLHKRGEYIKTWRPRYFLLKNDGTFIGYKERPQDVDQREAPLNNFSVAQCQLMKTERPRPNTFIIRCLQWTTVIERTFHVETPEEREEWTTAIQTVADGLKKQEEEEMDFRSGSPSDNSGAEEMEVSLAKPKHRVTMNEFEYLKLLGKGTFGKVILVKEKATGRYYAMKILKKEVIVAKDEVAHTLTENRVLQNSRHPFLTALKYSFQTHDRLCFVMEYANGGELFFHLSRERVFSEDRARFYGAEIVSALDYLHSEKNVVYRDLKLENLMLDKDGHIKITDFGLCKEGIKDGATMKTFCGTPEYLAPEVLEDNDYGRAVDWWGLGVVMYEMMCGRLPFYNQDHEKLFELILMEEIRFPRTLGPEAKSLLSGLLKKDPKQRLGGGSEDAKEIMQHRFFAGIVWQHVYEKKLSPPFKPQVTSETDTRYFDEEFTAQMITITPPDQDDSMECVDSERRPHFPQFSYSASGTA

Row | Thr308 phosphorylation of HA-PKBα in unstimulated cotransfected 293 cells, relative to IGF1-stimulated cells with HA-PKBα alone [1] [%] | activity of HA-PKBα immunoprecipitated from cotransfected 293 cells after IGF-1 [1] [fold] | activity of HA-PKBα immunoprecipitated from cotransfected, unstimulated 293 cells [1] [fold] | further increase of Thr308 phosphorylation of HA-PKBα in cotransfected cells in response to IGF1 [1] [fold] | fold activation with sn-1,2-dipalmitoyl D-PtdIns(3,4,5)P3 [2] [fold] | fold activation with sn-1-stearoyl, 2-arachidonyl D-PtdIns(3,4,5)P3 (lipid 1) [2] [fold] | fold activation with sn-2-arachidonyl, 3-stearoyl D-PtdIns(3,4,5)P3 [2] [fold] | fold activation with sn-2-arachidonyl, 3-stearoyl L-PtdIns(3,4,5)P3 [2] [fold] | fold activation with the L-enantiomer of sn-1-stearoyl, 2-arachidonyl PtdIns(3,4,5)P3 [2] [fold] | Substance
1 | 70 | 70 | 20 | 4 | – | – | – | – | – | Myc-PDK1 (N-terminal Myc epitope-tagged human PDK1, residues 52-556, expressed in 293 cells) (from UniProt O15530 52-556) (enzyme)
2 | – | – | – | – | 5.5 | 13 | 16 | 2.3 | 1.7 | PtdIns(3,4,5)P3-dependent protein kinase-1 (PDK1) purified from rabbit skeletal muscle (enzyme)
